Source: a protein production outcome set (Wang et al. 2014)

Assay: label from the status in PepcDB records

Protein production, failed:
MNKRFFPRIDLPLLMAIIPIMLLSSLTLWSASGFDESMLFKHLARCALTLVCILVMSSIPAASYQRSAPYLYFVAVSLLLAVALFGDSTNGSQRWLDIGFFRFQPSELIKLSIPIMIAWMLHLEGGRPDFRKIALCLMITLVPAGLIALQPDLDGAIFTVIYALFVLFFAGMSWKIIGGFVVSVLTLAPILWFFVMEAYQKSRVTQFLHPESDPLGSGYQIIQSLIAIGSGGMKGKGWMNATQGTLGFIPESHTDFIFSTYAEEWGFIGCVVLLALYLFITARVMLLACQSEHFFSRLVSGTLAMSFFLYAFINTGMVSGLLPVMGSPLPFFSYGGTAMLTQGICFGVIMSLCYSKYRNT
MNKTMAKSLSVIIPACNEVDTISDVIQSVRPLNPVEIIVVANGCNDGTEDVADRLGCKVIKHTELLGNDVGRAVGAKHAIGDVLLFIDGDFAIPTSKLKLFLNPILYDQADVVLNNLDALFLKRQKTTSITVWRQILNAMLEREELKMNSLLDVPHALTKEVVQSIGYECFVNPIVAHLRLVQSKWRISRHCAIDVITPNKFRPFQHAAYGTNLSQSEKRMIGDHIEAVAERILSSDERGGYYDGNRKRDSVYHTLSFEEFYQGWGVTSDFYKGKQLSVVIPVQDEEKTIGNVIEELRKIEPFEIIVVVNGSSDKTKKIAKDKGATTIVYKEALGNDVGRSLGTYFAKGEIVLFIDGDFVIPASELYPFAKAIADGTDVALNDLNHYLDLRVPLHLVTAFKYALNLACDRKDLGVGSLIAVPNAFSRKCLKEIGYRSLLAPCVAQVKAILSGFEVACVSRVEVDKMNRIRPSEHFAKIGHPPAVLRIIGDHIEGLDQIIALTDNRGGFYDGNRKRDVLLEHHHHHH
MNLDETLLNRIKVIALLNLKLVRKLVIFIMVNCLVLSGIPAALCMSSAPVVYVTGDGSGDFNCDGTDDHVQINQALKFVAENSAYTTVYLKGPFTYVIDDTLLIGSNTILEGDSSAKIKLVNNANWESRKPMIKERSTGISGITIRGFTIDGNREGNTNVVSGKGYYNLIHLSSCQNIKVYDMYLTNNHGDGLKTDKCTNVEFYDNEIYLLGHDGLYASGCSDVEAYGNTITCRTNSGLRLYNTNKASFHDNVITSEGSGGAGIEIQKYNTPAMDDIEVYNNVIYKTALAGIWIFGSGSYSASTANVHVHHNQIYDTGTKTSNSIIGGIVSNGFSGLIENNVIDGAYGAGIVQKTVYSPAPSGSGFLLTVRNNILSNSRSSSGGGSGYGINNELSGTHSFVLQNNCYYGSAGGDSRNVQLSASDIKVDPQFADRSSHDYHLKSIAGRWNGKSWITDSASSPCIDAGYIASDYSKEPQDNGGRINIGTYGNTKYASKSGTTEVVTNQAPVLNSIQDATVEIGESLTFTVSASDAEEDSLSYSASGLPTGATFDSESGIFAWTPAVGQEGTYSVTFVVSDGELTDSATAIINVSKQEDTSKQEDPSTITGEVYDNRLREASPDIVYQSSPFIDVGAMSIGSYRDIMWFDLSVYADYSEVNSATLSLYWYYPAGKARPEDTVIEIYRPADSWNPDYVSWNKKDKRVAWNNAGGDWYDRNGVLQGSTPYATITLEGSDLPDNRYYELDVTDLVNEYISSKYENTGFLIKARTENNNYIAFYSNDCGNENQKPKLTVTEEASVSPIDVQPIDVTVSGAKDNRLREASAENVYQSSAYVDVGALSGVGRYRDMMQFDLSEYADYSEVNSATLFLYWYYPAGKARPEDTVIEIYRPADSWNPDYVSWNKKDKRVAWNNAGGDWYDRNGVLQGSTPYATITLEGSDLPDNRYYELDVTDLVNEYISGKYENTGFLIKARTENNNYIAFYSSEAGGENQRPKLNLQLKQ
MNLELLTLAVGAYAAVLAFLGWLGYRRTRSAADYLVGGREIHPVLMALAYGSTFISTSAIVGFAGVAALMGMGLLWLTMLNILLGVFVAFVVFGRPTRRLGAALDAHTFPELLGRRYRSRFIQGFAGGTIALLMPLYAAAVLIGGARFLEVQLRLDYHMALFVFAAITVGYVLFGGLKGVVYTDAFQAVLMVCGMLVLLVATYAQVGGLSAHQALTDLADQVPPALRAQGHRGWTAMPAAGSPLWWQMVSTIVLGVGIGVLAQPQLTVRFMTVKSGRELHRALVPGGLFLLLMAGVAYVVGSLTNLWYFQRTGKIALAIMTDPATGKPNVDRLMPLYTQAAMPEWFAYLFMLALLAAAMSTLSAQFHAIGTAIGRDLYEQAFRLGGGAERTVLLARAGILAGFAGTVLLAWNLGPGVIAIATALFFGMCAATFLPAFVSALFWARSTRAGVIAGMLAGFGAWALWVLFVHERESAALGVVKALTGRTSLGAGTTWALVDPIVVALPIAALVTVVGSLAGRAAPGAETGGPARTREGGLDAGLR
MNLETKPIAETPNFIVLDQYEKIEQSGSYQSENRLEAELIADLQNQGYEYRKDLNSQSRLLENLRAQLQRLNDVAFSDGEWARFLTEYLDRPAENITDKTRKIHDDHIYDFAFDDGRLKNIYLLDKKNLARNHVQLINQFEQTGTHANRYDVTVLVNGLPLVQIELKKRGVAVREAFNQVHRYSKESFNSGNSLFKFLQIFVISNGTDTRYFANTTKRDKNSFDFTMNWARSDNHPIKDLKDFTATFLQKSVLLSVLLHYSVFDANDTLLIMRPYQIAAAERILWKINSSAQAKNWSGPESGGYVWHTTGSGKTLTGFKAARLATESAFIDKVFFVVDRKDLDYQTMKEYQRFSPDSVNGSESTAGLKRNLEKDGNKIIVTTIQKLNNLMKSEDNLPVYHRQVVFIFDECHRSQFGEAQKNLKKKFKKFCQFGFTGTPIFPENALGAETTAGVFGRELHSYVITDAIRDEKVLKFKVDYNDVRPQFKAVEAEQDEKELSAAENRQALLHPERIREITQYILSRFRQKTHRLNAGGKGFNAMFAVSSVDAAKCYYEAFKTQQAGSLHPLKTATIFSFAANEEQNAVGEIVDETFEPEAMDSSAKEFLQAAINDYNACFKTNFGTDSKAFQNYYRDLAKRVKNREVDLLIVVGMFLTGFDAPTLNTLFVDKNLRYHGLMQAFSRTNRIYDATKTFGNIVCFRDLEQATIDAITLFGDKNTKNVVLEKSYEEYMNGYTDSQTGEARRGYLDVAKELHERFPDPDKIETEKDKKDFAKLFGEYLRAENVLQNYDEFAALRELQNVDAADEDAMKAFQEKYYLSDEDVQEMRKVPMPSERAVQDYRSAYNDIRDWLRRQKAGEQKEQSKIDWDDVVFEVDLLKSQEINLDYILQLVFEHHKKIKGKAELVEEIRRIIRASIGHRAKEGLIVDFINDTDLDKVPDVPAILETFYTYAQEVMRHEAAGLIAAEGLNETAAKRYLTGSLKRGYASENGTELTETLPKMSPLNPQYLTKKQSVFQKIAAFVEKFAGIGADI
MNLHTKTWVQRLPVPIDVAWDFFSQPGNLARITPPEMMLKAEGGNAGTAIYEGMKLNFVLYPFMMIPVRWTTEIMKVSKPDFFEDRQLSGPYEQWYHRHLFRDIEGGTEMTDIVEYALPFDLFGEVVEALIVGPRLDEVFEYRRCRVAEILGLEHHHHHH
MNLIWFLIIGGLAGWLAGLIMKGKGFGVLANIGIGIVGSFIGGFLFGLLQLSAHGAIGRLVTATVGAVLLLAIVNKIKKG
MNLNDYKGILVFAEQRDGILQNVGLELLGKATELAYEINKQIALKDAGDELADFAGKKEAAIKSVDVAAATLEEDDQELKNKVADIKKNNPDAAKVTALLVGHNIKNLAQDLIKAGADKVLVVDKPELEVYDTEAYAQVLTATINDQKPEIVLFGATTLGRDLAPRVSSRIATGLTADCTKLELLKDKERQLGMTRPAFGGNLMATIVSPDHRPQMATVRPGVMKKLPKSDDRTGEVVEFPVTLDTSKMKVKLLKVVKEGGNKVDISEAKILVSGGRGVGSKQNFELLEDLATEIGGIVSSSRAQVDAGNMPHDRQVGQTGKTVRPEVYFACGISGAIQHVAGMEESEFIIAINKDRFAPIFSVADLGIVGDLHKILPILTEEIKKYKATK
MNLNIRIKNYWEGEAQGYSEAIEDELNGFERKAWSDLVLEYAPSKDRLDILDIGTGPGFFPIVLSQGGHNVTGIDLTENMIEFARLNLAREGASAKLVTMDCQNLKFPDNCFDLLVCRNLTWTLDDPAKAYKEWHRVLKPGGRVLIFDACWYLHLFDENMKIAYEKKEKEILMKYGHPMHQHKDQVEGDALSRKLFMSDKVRPQWDLDIMLKLGFSKVFADTSVGERILNEQQQDRNSMHPPFLVGGEK
MNLPCQWPRSQQADKHGRFPINRDQRRAAGAGTRSGAGGQPPLGLDQYVQQALQLHQAGRRQEAESIYRQVLARQPKHAAAAHFLGLLLHQTGRSEEGLDLIERSVSLQPTNADFLNNFGTVMRDLGRVAAAIDFFRGAVDLRPEQLAARDNLGSSLKQLGRFEEAEDIYRGTVARNPFHVRARIGLAETLQEAGRLDEALAVFRESLTIRPKDADLLHGLGVGMMEKGKLDEAADLFRQALAVNPGMATAWLMLTQVKRQKERDAELAGMEAQHAKAPQDSLARMQLSFGLGKANDDLKDYNRAFDYFAEGNAIRRKGIDYDPVRTREEFAAMKTVFDAGFFERHRPSPISDDAPIFVVGMPRSGTTLVEQIIASHPQVYGAGELSILKKAVGKQFPTTMPGGFPWGVADTDDADFAEAGQAYLDMLHARYPHLSHVTDKMPGNFLLVGFIHMMMPKAKIIHCTRDAAATCLSIYKVHFRGDSHRYGYDLGELADFHNLYTDIMAHWHKVLPGVVHDVRYEDFVADQEGQSRALIDYLGLPWDDAVLSFHATDRPVRTASAAQVRQPMYQGSVDLWKRYGDRLKPLLDKLD
MNLPILPTISTSFIVISAILIAIGWRQIWKRKIESHKKVMLAAAFFALAFFIIYASRTIFIGNTAFGGPDSIKIYYTIFLIFHINLATIGGILGLVQIITAFKDKFKVHRFVGPIASIVWFCTAITGVAVYLLLYVLYPGGETTSLLKATFGL
MNLRLTASILGKLLMLFSFSFILPLIAAHVFEEPYHPFLIPAALSLLVGAVLGYGIKTESEFDSLRHKESFAIVALIWLFMSIFGSIPYIIFGISPVDAFFESMSGFTTTGASVLTPEELPKSLLLWRSLTQWIGGMGIIVLFLAIFPNVAKRSTVLFQAEYPGVSLSKLKPRIRDTALSLYKVYLLLTIAEVALLYALGLSLFDAINHTFTTLSTGGYSTHSESIAFFKDVRVEAVVAFFAFLGGANFALIYFLLSGKPVIFRNTEFRAYVCFLALASVVIAAVNLDRYSIFESLRYSIFQAVSIMTTTGFTTADFDAWSDSAKLILVVLMFIGGSSGSTGGGIKVIRIYLLIKYAVHQILRAAEPRTVRAVKFEGRAIKKEILDDIAAFFVLYILIFAVSSILVSLSGYDIVTSISATAATLGNVGPGLGLAGAAENYASFPSLTKILLAVNMWIGRLEIFTVVSLFIPTFWRERW
